Assay results from the DeepSol protein solubility set.

Assay: soluble on expression in E. coli; label from the status in PepcDB or PDB records

MGSDKIHHHHHHMSDSTTPETIIVIGASSLMAQAFIAKTFTQQAYTDQTVIQQASSQQSKRHDTSPLQIITVSRQNKLILHDLTDNISHHHFSCDYQQASIEQCVTNIAAIAGKVTRIVMCNGILHSKNPQSADSILGPHSANDSTLMPEKRIEDIDALSLEQLFYANSIVPMLWLSALTSLLSLPRHKVAGEQKCVISILSARVGSISDNRLGGWYGYRASKAALNMLIKTTAVEYARRLKRVKLIAFHPGTTDTPLSKPFQANVPAGKLFTPEFVASQLYNIMADIEPNGEASYLDWQGKEISW
soluble on expression in E. coli: not soluble

MNEADYLRLLTRQAEQANDFLSNARKWDRERWVCQRFLEALNVPYRQEDFAAPGEQPPDVLFKGAGFEVFFVLDEGRRLNEEWREELTRRRQAVSLRQLIRREERPQRIAAAELQARLAPTLRKKAHNYSERGIDHGELDLLAFVNLKRAVPDFNTPFPPPTEYLRQGWRSLSMVGPTFARVLFAHSGAPEFLRANLGRSILFDAGVGL
soluble on expression in E. coli: soluble

MGSDKIHHHHHHMENLIKIDTVDQYNKMFGLETLHPLVSVVDLSKSETWPTNFRVNYGIYGLFLKDTKCGDIRYGRQYYDYQEGTVVGFAPGQVTGIELKDGTRPLAHGLLFHPDLIRGTALGRDIKRYSFFSYESNEALHLSEEEKGIFVDCLRKIQIELEHSIDKHSKRLIAMNIELLLDYCLRFYDRQFTTRAETNKDVLVRFERLLDEYLQSDLLRQEGLPTVRYFAEKICLSPNYFGDLIKKETGKTAQENIQDRIISLAKEWIVGTNKTVSQIAYDLGFQYSQHFSRIFKKTVGCTPNEYRKSQMS
soluble on expression in E. coli: not soluble

LSPPRGLVAVRTPRGVLLHWDPPELVPKRLDGYVLEGRQGSQGWEVLDPAVAGTETELLVPGLIKDVLYEFRLVAFAGSFVSDPSNTANVSTSGL
soluble on expression in E. coli: soluble

MSLTEKKCTVMLSKFKRNKHQQHLAQLPKISQSVDDVDFFYAPADFRETLLEKIASAKQRICIVALYLEQDDGGKGILNALYEAKRQRPELDVRVLVDWHRAQRGRIGAAASNTNADWYCRMAQENPGVDVPVYGVPINTREALGVLHFKGFIIDDSVLYSGASLNDVYLHQHDKYRYDRYHLIRNRKMSDIMFEWVTQNIMNGRGVNRLDDVNRPKSPEIKNDIRLFRQELRDAAYHFQGDADNDQLSVTPLVGLGKSSLLNKTIFHLMPCAEQKLTICTPYFNLPAILVRNIIQLLREGKKVEIIVGDKTANDFYIPEDEPFKIIGALPYLYEINLRRFLSRLQYYVNTDQLVVRLWKDDDNTYHLKGMWVDDKWMLITGNNLNPRAWRLDLENAILIHDPQLELAPQREKELELIREHTTIVKHYRDLQSIADYPVKVRKLIRRLRRIRIDRLISRILEGHHHHHH
soluble on expression in E. coli: not soluble

MLINARISVRSYPKYQRFSFFYALLFKRIDLILAQSKEDKKRLLNLGAKKVVDFLNIKRFSKPVITSFYPKNPSALNIVLASTHEGEEELGLKAFLELKKTFKNARLIVVPRHPERFKSVQDLLQNTLKTTPFSWECFSSKGFVECDILLVDSLGELNNFYQIADIVILGGSFVKMGGHNPLEPAFFNARLITGEYIFNQVALFELVKPYKIVPKEDLLDALLDYKNLGMARFLENGHDLNELLAFIKHLEHHHHHH
soluble on expression in E. coli: soluble

MGHPPLLPLLLLLHTCVPASWGLRCMQCKTNGDCRVEECALGQDLCRTTIVRLWEEGEELELVEKSCTHSEKTNRTLSYRTGLKITSLTEVVCGLDLCNQGNSGRAVTYSRSRYLECISCGSSDMSCERGRHQSLQCRSPEEQCLDVVTHWIQEGEEGRPKDDRHLRGCGYLPGCPGSNGFHNNDTFHFLKCCNTTKCNEGPILELENLPQNGRQCYSCKGNSTHGCSSEETFLIDCRGPMNQCLVATGTHEPKNQSYMVRGCATASMCQHAHLGDAFSMNHIDVSCCTKSGCNHPDLDVQYRSGAAPQPGPAHLSLTITLLMTARLWGGTLLWT
soluble on expression in E. coli: not soluble

MSLNNHKHARLTRLGRALLVNRVMQQNWTMRQASQAAGVSLRTGYKWLARFRSEGLDGLLDRSSRPHRSPKACAPEQVEHFAQQRRQRLPLWRIAREAGRSLATVARYMERIGLSRLASLEPPAPVRRYERASPGELLHIDTKRLGRIRGVGHRITGDRAQNRNRGIGWDAVHLAIDDFSRVSFARILDDEGGDQCAEFLHQATAYYASLGVRIDRVMTDNGSGYVSRTFRAVCVELGIRHIRTRPYTPKTNGKAERLVQTCLREWAYARPYTSSAERQAALQPFIDRYNWCRPHSALGHQPPITRIPDVNNLLRIDSEGHHHHHH
soluble on expression in E. coli: not soluble

MSLRKSTLSGEVRVRNHQLGIYEKALAKDLSWPERLVLAKSCGFDFVEMSVDETDERLSRLDWSAAQRTSLVAAMIETGVGIPSMCLSAHRRFPFGSRDEAVRERAREIMSKAIRLARDLGIRTIQLAGYDVYYEDHDEGTRQRFAEGLAWAVEQAAASQVMLAVEIMDTAFMNSISKWKKWDEMLASPWFTVYPDVGNLSAWGNDVPAELKLGIDRIAAIHLKDTQPVTGQSPGQFRDVPFGEGCVDFVGIFKTLHKLNYRGSFLIEMWTEKAKEPVLEIIQARRWIEARMQEAGFICEGGSHHHHHH
soluble on expression in E. coli: soluble

MTENCCVPGGTVMILSCSGGSNVGQLSNQAAVELTREGVGKMFCLAGIGGQLSGFVQSARDVPEMVTIDGCSVGCAKAILEKARVPLKSYLVLTDLGIEKNKNFELSSHDIRRVKEAVKALLFEK
soluble on expression in E. coli: soluble

GPGSMSQQNAVEALLARLQMGDTIPAFQSMGVDRIVSLRKMSEEALSQAVPDPEQRQALMDAIESRGHLQSRRAGPPAGQPHPPRSADADFARGGNDEGRGGYAPRGDRGGRIARGGRGGGRGAGAPNGDDAARVCRHVFTPEGCKYGDKCRYSHDENDRRRAQEVPTGSGMAQRSLERPPPNFKFSIEVEIPTERIKYLLGSQGNNMKFINETCGTYNERFDHVDEKEETFTIRILGGSEEAINKAKEMLLLSAGVKREEEKKDRFQYAVNELDANTHAARLFAACNTKNKDTTRHLSDSIMRNIVSSFHFVRPQEVRHFYMYTSSSDKDKLEMVSKIVSQLKGVQAILFCDQKRVEEMCKGSQRIARHFNGVEPQFVYRQLSKEDRMMALERFKKGVENENGVRQRLLVTNEDYAKLARKTIIPYVNLVINFSVPRAEEYYVLQSQVAGRQGTIGASFLCVSNYEEALFRELEKNIQFERFEDEEHFRTTAVELSYDTTAQPLTPEDADPPADWREHLNDKKPRQNFGKRR
soluble on expression in E. coli: soluble

MGHHHHHHSHMCNTPTYCDLGKAAKDVFNKGYGFGMVKIDLKTKSCSGVMEFSTSGHAYTDTGKASGNLETKYKVCNYGLTFTQKWNTDNTLGTEISWENKLAEGLKLTLDTIFVPNTGKKSGKLKASYKRDCFSVGSNVDIDFSGPTIYGWAVLAFEGWLAGYQMSFDTAKSKLSQNNFALGYKAADFQLHTHVNDGTEFGGSIYQKVNEKIETSINLAWTAGSNNTRFGIAAKYMLDCRTSLSAKVNNASLIGLGYTQTLRPGVKLTLSALIDGKNFSAGGHKVGLGFELEA
soluble on expression in E. coli: not soluble

MGSDKIHHHHHHLSIIEQYLSQAEALFQSKNYSSARMYARKVIKRDDKHLGALSLLGQIHLQQQQYNEAENYFATAAAVDPNAMPVLTGLLAIAEVKQDFFLAKTYLLQLINTQGNVETYQYKLGLVATKVGDMALAEQCFEWCVANDFSEPAVQLNLGHIYKAKGDTEKAANFYHQYNQLSPKQVGVGYWSLADLKQYRFSTDDLTLLQVFATDESLSKQNQALVYFALCKAYEQTQQIDKASESMLLANKIMTLHRPFKQAQFANIVLSLLGHTPSPHIDSLPTASQTPIFIVGMPRSGTTLVEQILACHTDVGATDELPFMERFALQMDMSGGYNARLSQLSASHIDQFRQRYLAEVNHYFSDAPTYVIDKNPNNFLHIGLIKTLFPQAKIINVVRNTVDNGLSVFKQFFSFGHDYSYSFAGISSYWQHYLDIMQHWDRLYPNEILHVCFEQLVREPESQIQRILDYCELTTQAQCFTFYESERAVLTPSASQVRQPMNLKAIGQADKYQAFIPEQIAELDAIAKKAALQFFG
soluble on expression in E. coli: not soluble

MAAGSMDGIFRNIFEGCISSCDSSIQRRPYHKNCGCALHERSRGGGSATPCRHGRSEVVMFPIQRSWSEGNSLALHLASSSSSSNLQSLSSSSSISTLASLSSTVSDIDSPI
soluble on expression in E. coli: soluble

GMKTSVKFETIFPLTTAPLIQCITNEITCESMANALLYIDAKPIMADDPREFPQMFQQTSALVLNLGHLSQEREQSLLAASDYARQVNKLTVVDLVGYGASDIRNEVGEKLVHNQPTVVKGNLSEMRTFCQLVSHGRGVDGSPLDQSEEAIEELIQALRQQTQKFPQTVFLATGIQDVLVSQEQVIVLQNGVPELDCFTGTGDLVGALVAALLGEGNAPMTAAVAAVSYFNLCGEKAKTKSQGLADFRQNTLNQLSLLMKEKDWFEAVKGRVL
soluble on expression in E. coli: soluble

SKLVYRNLARNGPGSVKLVPEEEDDLWHAYNLIVPGDTLQSVTVRKVLREMASGGRDAERVRLKLEIVVESVDYDKEGSVLRVRGKNITENDHVKIGQFHTVELELKRQFTLTKELWDWLALDTIQQACDPTASADLAVILMQEGLAHLFLIGRSITVTRARIETSIPRKHGPAIAGYESALKKFFEHVLQVNEKCFLKEMIILMKPIWTDALLNLPTGFPEAY
soluble on expression in E. coli: soluble

MSLFDPNDYKDEIRQIARDKANLELDLKGDIGWSLFPWLGLELHDTSIASAATPTKPFADLQMLGLSVRVLPLLRKDVQMSAIRVEGLSLDLVRDKQGKGNWENIGKPAQPQAPAAPSETPPAADGKGAQAQAPEQAPQNDSPRTPIKLDIDSLNVNNARVTYTDEASGKQYNVEGIELSTGAIREGSSIPLKLNAYLGTNQPVVRVKTELTGNLRFDTALRRYQLEDARLSGEASGEPLQGKTATFSAQGQLLLDQSAQIAEWNGLKLSVNQLRALGELKARELDKDTKFSGGLSIAPMNLREFLAGIGVTLPAMADANTLGKFELNTRLAGSRNSLNLEDLKLGLDDTAFSGRFGIADFARQSLRAQLKGDKLDLDRYLPAKAKQAQDAASATRKAEVDATVASAAQGNTPLPEKPTRQAWSDAPLLPIATLRKLDLDVALNFGRLTVEKLPIDDASLKLRGQGGVISLDDMRGGLYNGRFNAKANLDVRQDSAVLTATKHIANVPVERLLEAQGKKPPVKGLLDLDADIRTSGNSEKSWIDHLNGNARFSLINGVLPDANLEQQLCQGIATLNRKALAGTHGGKDTPFRELKGSLNFTNGVASNPDLKVAIPGLAVSGHGDIDLRVLGMDYRIGVEIQGDKSDMPDPACQVNQRYAGIEWPLLCRGPLELGAKACRLDKEGMGKVAAKLAGNRLNEKLEEKLGDKVSPELKDALKGLFNRKEGHHHHHH
soluble on expression in E. coli: soluble

MSVGKPLPHDSARAHVTGQARYLDDLPCPANTLHLAFGLSTEASAAITGLDLEPVRESPGVIAVFTAADLPHDNDASPAPSPEPVLATGEVHFVGQPIFLVAATSHRAARIAARKARITYAPRPAILTLDQALAADSRFEGGPVIWARGDVETALAGAAHLAEGCFEIGGQEHFYLEGQAALALPAEGGVVIHCSSQHPSEIQHKVAHALGLAFHDVRVEMRRMGGGFGGKESQGNHLAIACAVAARATGRPCKMRYDRDDDMVITGKRHDFRIRYRIGADASGKLLGADFVHLARCGWSADLSLPVCDRAMLHADGSYFVPALRIESHRLRTNTQSNTAFRGFGGPQGALGMERAIEHLARGMGRDPAELRALNFYDPPERGGLSAPPSPPEPIATKKTQTTHYGQEVADCVLGELVTRLQKSANFTTRRAEIAAWNSTNRTLARGIALSPVKFGISFTLTHLNQAGALVQIYTDGSVALNHGGTEMGQGLHAKMVQVAAAVLGIDPVQVRITATDTSKVPNTSATAASSGADMNGMAVKDACETLRGRLAGFVAAREGCAARDVIFDAGQVQASGKSWRFAEIVAAAYMARISLSATGFYATPKLSWDRLRGQGRPFLYFAYGAAITEVVIDRLTGENRILRTDILHDAGASLNPALDIGQIEGAYVQGAGWLTTEELVWDHCGRLMTHAPSTYKIPAFSDRPRIFNVALWDQPNREETIFRSKAVGEPPFLLGISAFLALHDACAACGPHWPDLQAPATPEAVLAAVRRAEGRA
soluble on expression in E. coli: soluble
